From US20160075755A1

Target: TGFβ1 (UniProt P01137)
Assay: cell-based or functional assay

DNRII (truncated, dominant-negative TGFβ receptor II), sequence (P37173 23-199): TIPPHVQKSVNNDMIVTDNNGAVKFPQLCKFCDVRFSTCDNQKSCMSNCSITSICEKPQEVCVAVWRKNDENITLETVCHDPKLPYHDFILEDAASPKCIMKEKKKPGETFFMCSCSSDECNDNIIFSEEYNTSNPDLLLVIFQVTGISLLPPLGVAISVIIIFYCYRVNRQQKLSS
TGFβ1, sequence (P01137 279-390 limits assumed): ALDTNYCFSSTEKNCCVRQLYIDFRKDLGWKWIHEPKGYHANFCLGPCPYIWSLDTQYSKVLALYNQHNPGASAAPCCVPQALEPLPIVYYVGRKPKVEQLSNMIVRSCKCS

Substance	T cell expansion after 30 days in culture in the presence of TGFβ1 [fold]	Total Flux of firefly-luciferase-Du145 cells (express PSCA, produce TGFβ1) after 6 days of co-culture [p/s]	fold expansion of 2G.CAR-PSCA(DNRII) T cells at 2 weeks of culture in the presence of TGFβ1 [fold]	T cell expansion for >60 days in the presence of TGFβ1 [fold]	fold expansion of 2G.CAR-PSCA(RIID4) T cells at 2 weeks of culture in the presence of TGFβ1 [fold]	transgenic T cell proliferation with TGFβ1 alone (no antigen) [fold]
DNRII (truncated, dominant-negative TGFβ receptor II) (from UniProt P37173 23-199)	0.72	1e+10	7.4	–	–	–
RIID4 (chimeric cytokine receptor: exodomain of TGFβRII linked to the endodomain of toll-like receptor (TLR) 4) (from UniProt P37173 23-166; O00206 632-839)	–	9e+09	–	300000	21	0.04
